Data set [1] is described as follows: Kinetic analysis of Aβ40 and Aβ42 aggregations by SDS-PAGE. Particulars: 50 µM peptide in PBS without SDS, 37°C. The class given is physicochemical, Human. The procedure: These Aβ solutions were diluted at 50 µM in PBS with or without 1 mM SDS, and 5 µl of aliquots were incubated for various time periods at 37°C. The samples were mixed with sample buffer (final concentration: 50 mM Tris-HCl (pH 6.8), 2% SDS, 0.1% bromophenol blue, and 10% glycerol) and immediately electrophoresed using 16.5% Tris-Tricine gels or 16% Tris-Glycine gels. These gels were stained with Coomassie brilliant blue.
After the incubation, these samples were electrophoresed using 16.5% Tris-Tricine (a and c) and 16% Tris-Glycine gels (b and d). […] [1] Schagger H (2006) Tricine-SDS-PAGE. Nat Protoc 1: 16–22. Laemmli UK (1970) Cleavage of structural proteins during the assembly of the head of bacteriophage T4. Nature 227: 680–685. (1.27 MB TIF) Click here for additional data file.

Data set [2] concerns the target Aβ42 (Homo sapiens, UniProt P05067). The experiment in a line: Imaging of fibril formation: coaggregation of QDAβ with intact Aβ42, wide-field fluorescence microscopy. The conditions noted are these: 0.1% QDAβ(6)-containing 50 µM Aβ42, 1 day on ice. It is filed as physicochemical. The source says:
(b) Fluorescence intensities of the aggregates in (a). Fluorescence intensities measured from 20 randomly selected fields (100×100 pixel: 8.6×8.6 μm) containing the aggregates are shown as relative % intensity against QDAβ(6) group. *** denotes P<0.001 for QDAβ (6)- versus QDAβ (1)- or QDAβ (0)-samples and ## denotes 0.001<P<0.01 for QDAβ (1)- versus QDAβ (0) samples. Error bars indicate SD (n = 20). […], spread between glass slides and cover slips, and observed by regular microscopy using a 100x objective lens with QD filter set (left micrograph) and […] (right three micrographs). […] The right three micrographs are magnified and brightened micrographs. The top right micrograph is the boxed area in the left micrograph. […] To remove any aggregates, the mixtures were centrifuged at 10,000×g for 1 min at 4°C. The mixtures (50 μl) were put in microcentrifuge tubes or 96-well glass bottom plates (MatTek). […] Supplementary file pone.0008492.s006.tif: Figure S4 Dose- and time-dependent coaggregation. […] (7.12 MB TIF) Click here for additional data file. Supplementary file pone.0008492.s007.tif: Figure S5 Temperature-dependent Aβ aggregation. […] (1.67 MB TIF) Click here for additional data file.

For data set [3] the following is noted: 10–35 µM Aβ42 in phosphate buffer (pH 7.5 or pH 7.4); cited from earlier work.
Data set [4] can be described thus: 4D imaging of Aβ aggregation by swept-field confocal microscopy. The class given is physicochemical, Human.
Description: (a) 4D imaging of Aβ aggregation. […] (b) Time-course of Aβ aggregation. The volumes of Aβ aggregates measured from three 4D experiments (red, blue, and green). The total volume of the observed space is 1.9×10^6 µm^3 (138×138×100 µm).
To remove any aggregates, the mixtures were centrifuged at 10,000×g for 1 min at 4°C. The mixtures (50 µl) were put in microcentrifuge tubes or 96-well glass bottom plates (MatTek). The samples in microcentrifuge tubes were incubated for various time periods at 37°C in an air incubator, and observed by wide-field fluorescence microscopy or electron microscopy. The samples in 96-well glass bottom plates were incubated at 37°C in 5% CO2 in a culture chamber (LiveCell™, Pathology Devices), and directly observed by wide-field fluorescence microscopy or swept-field laser-scanning confocal microscopy [QDAβ: Excitation: 488 nm at 15% power; Emission filter: Chroma Quad Filter (#C68208) for FITC].
QD was excited by an argon laser, and Lysotracker and Mitotracker were excited by an argon/krypton laser.
Setting [5] is: 0.1% QDAβ(6)-containing 100 µM Aβ42, 37°C, imaged every 30 min over 20 h, three 4D experiments.

Chain of Aβ42 (P05067 672-713 limits assumed): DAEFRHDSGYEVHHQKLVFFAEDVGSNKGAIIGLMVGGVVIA

On to “Aβ40: Human amyloid peptide Aβ40 (Biosource)”, for which the “oligomer formation after 5 days” value in data set [1] (SDS-PAGE (Fig. S1c, d)) was “did not form oligomers”.

For the substance “Aβ42: Human amyloid peptide Aβ42 (Biosource)”, the “aggregation after incubation on ice” value in data set [2] is listed as “did not observe aggregation”. For the same substance, the “time to formation of trimeric and tetrameric species from the start of incubation” value in data set [1] (SDS-PAGE, Coomassie (Fig. S1a)) is no more than 0.3 h. Further, in data set [3], the “lag time of ThT binding” value is “several minutes” and the “time at which ThT binding reached a plateau” value was 1 to 2 h. In data set [4] (setting [5]), the “lag time of aggregation” value is on record as “approximately 1.5 h” and the “time at which aggregation reached a plateau” value is “around 12 h”. In addition, in data set [4] (estimated from 4D imaging data, 100 µM Aβ42 with 0.1% QDAβ(6)), the “density of stacked-Aβ aggregates on the glass bottom in a steady state” value is 32 ± 6 mg/mL.

Values taken from publication PMC2794548, “Real-Time Imaging and Quantification of Amyloid-β Peptide Aggregates by Novel Quantum-Dot Nanoprobes” (PLoS ONE, 2009).
